Laboratory results reported in article PMC2583301.

Target: H2A/H2B(T112C) dimer, H2B labelled with Alexa dye (Xenopus laevis) (UniProt P06897)
Assay: other fluorescence titration

B1: yNap1(74-417) (domain or fragment)
chain: LGSLVGQDSGYVGGLPKNVKEKLLSLKTLQSELFEVEKEFQVEMFELENKFLQKYKPIWEQRSRIISGQEQPKPEQIAKGQEIVESLNETELLVDEEEKAQNDSEEEQVKGIPSFWLTALENLPIVCDTITDRDAEVLEYLQDIGLEYLTDGRPGFKLLFRFDSSANPFFTNDILCKTYFYQKELGYSGDFIYDHAEGCEISWKDNAHNVTVDLEMRKQRNKTTKQVRTIEKITPIESFFNFFDPPKIQNEDQDEELEEDLEERLALDYSIGEQLKDKLIPRAVDWFTGAALEFEFEEDEEEADEDEDEEEDDDHGLEDDDGESAEEQDDFAGRPEQAPECKQS
Work on B1 yielded a Kd of 1.7 nM and a Kd app (yNap1 counted as dimer) of 0.9 nM.

B2: yNap1(1-365) (domain or fragment)
chain: MSDPIRTKPKSSMQIDNAPTPHNTPASVLNPSYLKNGNPVRAQAQEQDDKIGTINEEDILANQPLLLQSIQDRLGSLVGQDSGYVGGLPKNVKEKLLSLKTLQSELFEVEKEFQVEMFELENKFLQKYKPIWEQRSRIISGQEQPKPEQIAKGQEIVESLNETELLVDEEEKAQNDSEEEQVKGIPSFWLTALENLPIVCDTITDRDAEVLEYLQDIGLEYLTDGRPGFKLLFRFDSSANPFFTNDILCKTYFYQKELGYSGDFIYDHAEGCEISWKDNAHNVTVDLEMRKQRNKTTKQVRTIEKITPIESFFNFFDPPKIQNEDQDEELEEDLEERLALDYSIGEQLKDKLIPRAVDWFTGAAL
For B2, the Kd was 2.1 nM and the Kd app (yNap1 counted as dimer) was 1 nM.

B3: yNap1(74-365) (domain or fragment)
chain: LGSLVGQDSGYVGGLPKNVKEKLLSLKTLQSELFEVEKEFQVEMFELENKFLQKYKPIWEQRSRIISGQEQPKPEQIAKGQEIVESLNETELLVDEEEKAQNDSEEEQVKGIPSFWLTALENLPIVCDTITDRDAEVLEYLQDIGLEYLTDGRPGFKLLFRFDSSANPFFTNDILCKTYFYQKELGYSGDFIYDHAEGCEISWKDNAHNVTVDLEMRKQRNKTTKQVRTIEKITPIESFFNFFDPPKIQNEDQDEELEEDLEERLALDYSIGEQLKDKLIPRAVDWFTGAAL
B3 gave a Kd of 10 nM and a Kd app (yNap1 counted as dimer) of 5.4 nM.
